Assay results: patent publication US20240409645A1 (DUALYX, published 2024)
Like-named read-outs stand apart in the source and are kept apart here.

B1: DC00068 (other)
chain 1: EVQLVESGGGLVQTGGSLRLSCAASGGTFSRDAMAWFRQVPGKEREFVALISWSGATTNYADSVKGRFAISRDNGKNTVYLQMNRLKPADTAIYYCAADRRPMGSRSYFEPTEYDDWGQGTQVTVSSGGGGSGGGGSGGGGSQVQLVESGGGLVQPGGSLRLSCATSGFTFRNNFMSWVRQAPGKGLEWVSTISYGGESTTYAESVKGRFTISRDNAKNTLYLQMNNLKPEDTAVYYCAKATSYDSIRSGSRGQGTQVTVSSDKTHTCPPCPAPEAAGGPSVFLFPPKPKDTLMISRTPEVTCVVVDVSHEDPEVKFNWYVDGVEVHNAKTKPREEQYNSTYRVVSVLTVLHQDWLNGKEYKCKVSNKALGAPIEKTISKAKGQPREPQVYTLPPSRDELTKNQVSLTCLVKGFYPSDIAVEWESNGQPENNYKTTPPVLDSDGSFLLYSKLTVDKSRWQQGNVFSCSVMHEALHNHYTQKSLSLSPGK
chain 2: QVQLVESGGGLVQAGGSLTLSCAAPGRTFGTDVVGWFRQAPGKEREFVASISRSGDGIYYDDSVKGRFTISRNNAWNTVNLQMNSLKVEDTAVYYCAAGDGWSTYDYWGQGTQVTVSSGGGGSGGGGSGGGGSQVQLVESGGGLVQPGGSLRLSCATSGFTFRNNFMSWVRQAPGKGLEWVSTISYGGESTTYAESVKGRFTISRDNAKNTLYLQMNNLKPEDTAVYYCAKATSYDSIRSGSRGQGTQVTVSSGGGGSGGGGSGGGGSEVQLVESGGGLVQTGGSLRLSCAASGGTFSRDAMAWFRQVPGKEREFVALISWSGATTNYADSVKGRFAISRDNGKNTVYLQMNRLKPADTAIYYCAADRRPMGSRSYFEPTEYDDWGQGTQVTVSSGGGGSGGGGSGGGGSDKTHTCPPCPAPEAAGGPSVFLFPPKPKDTLMISRTPEVTCVVVDVSHEDPEVKFNWYVDGVEVHNAKTKPREEQYNSTYRVVSVLTVLHQDWLNGKEYKCKVSNKALGAPIEKTISKAKGQPREPQVYTLPPSRDELTKNQVSLTCLVKGFYPSDIAVEWESNGQPENNYKTTPPVLDSDGSFFLYSRLTVDKSRWQQGNVFSCSVMHEALHNHYTQKSLSLSPGK
B2: TsVHH-48 (other)
chain 1: QVQLVESGGGLVQPGGSLRLSCATSGFTFRNNFMSWVRQAPGKGLEWVSTISYGGESTTYAESVKGRFTISRDNAKNTLYLQMNNLKPEDTAVYYCAKATSYDSIRSGSRGQGTQVTVSSDKTHTCPPCPAPEAAGGPSVFLFPPKPKDTLMISRTPEVTCVVVDVSHEDPEVKFNWYVDGVEVHNAKTKPREEQYNSTYRVVSVLTVLHQDWLNGKEYKCKVSNKALGAPIEKTISKAKGQPREPQVYTLPPSRDELTKNQVSLTCLVKGFYPSDIAVEWESNGQPENNYKTTPPVLDSDGSFFLYSRLTVDKSRWQQGNVFSCSVMHEALHNHYTQKSLSLSPGK
chain 2: QVQLVESGGGLVQAGGSLTLSCAAPGRTFGTDVVGWFRQAPGKEREFVASISRSGDGIYYDDSVKGRFTISRNNAWNTVNLQMNSLKVEDTAVYYCAAGDGWSTYDYWGQGTQVTVSSGGGGSGGGGSGGGGSGSEVQLVESGGGLVQTGGSLRLSCAASGGTFSRDAMAWFRQVPGKEREFVALISWSGATTNYADSVKGRFAISRDNGKNTVYLQMNRLKPADTAIYYCAADRRPMGSRSYFEPTEYDDWGQGTQVTVSSGGGGSGGGGSGGGGSTVSSDKTHTCPPCPAPEAAGGPSVFLFPPKPKDTLMISRTPEVTCVVVDVSHEDPEVKFNWYVDGVEVHNAKTKPREEQYNSTYRVVSVLTVLHQDWLNGKEYKCKVSNKALGAPIEKTISKAKGQPREPQVYTLPPSRDELTKNQVSLTCLVKGFYPSDIAVEWESNGQPENNYKTTPPVLDSDGSFLLYSKLTVDKSRWQQGNVFSCSVMHEALHNHYTQKSLSLSPGK

Tests used:
[1] = target: T1, human IL-2 receptor (IL-2Rα/IL-2Rβ/γc) (human, UniProt P01589 22-272; P14784 27-551; P31785 23-369); test: cell-based or functional assay
T1 sequence 1: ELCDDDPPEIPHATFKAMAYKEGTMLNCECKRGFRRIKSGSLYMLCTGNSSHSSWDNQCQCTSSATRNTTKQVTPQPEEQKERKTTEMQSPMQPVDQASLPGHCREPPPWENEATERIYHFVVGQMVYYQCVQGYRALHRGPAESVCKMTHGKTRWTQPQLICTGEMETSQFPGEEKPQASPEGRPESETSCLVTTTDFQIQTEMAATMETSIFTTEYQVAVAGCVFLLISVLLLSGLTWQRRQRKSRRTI
T1 sequence 2: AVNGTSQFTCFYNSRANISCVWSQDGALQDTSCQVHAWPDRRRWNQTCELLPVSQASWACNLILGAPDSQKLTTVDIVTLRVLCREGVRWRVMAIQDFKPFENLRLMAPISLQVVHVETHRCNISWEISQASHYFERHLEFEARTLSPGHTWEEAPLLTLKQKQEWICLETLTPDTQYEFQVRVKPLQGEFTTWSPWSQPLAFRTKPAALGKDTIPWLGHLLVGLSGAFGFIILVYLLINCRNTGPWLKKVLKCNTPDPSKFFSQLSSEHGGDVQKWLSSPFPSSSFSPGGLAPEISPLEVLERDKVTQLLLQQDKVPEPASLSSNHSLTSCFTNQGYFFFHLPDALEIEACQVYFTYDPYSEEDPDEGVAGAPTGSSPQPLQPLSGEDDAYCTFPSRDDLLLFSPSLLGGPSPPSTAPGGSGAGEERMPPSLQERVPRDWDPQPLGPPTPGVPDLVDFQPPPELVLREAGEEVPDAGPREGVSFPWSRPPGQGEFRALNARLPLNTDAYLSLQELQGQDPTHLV
T1 sequence 3: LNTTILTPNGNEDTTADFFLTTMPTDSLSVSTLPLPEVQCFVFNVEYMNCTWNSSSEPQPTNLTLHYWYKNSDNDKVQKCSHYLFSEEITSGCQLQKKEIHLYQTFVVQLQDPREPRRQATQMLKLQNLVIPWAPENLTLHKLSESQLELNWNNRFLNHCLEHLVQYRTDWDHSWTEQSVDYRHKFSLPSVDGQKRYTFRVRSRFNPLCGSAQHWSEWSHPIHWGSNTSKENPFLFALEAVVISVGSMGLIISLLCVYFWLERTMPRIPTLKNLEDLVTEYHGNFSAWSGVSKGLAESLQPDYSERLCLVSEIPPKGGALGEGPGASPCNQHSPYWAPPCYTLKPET

[2] = target: T1, human IL-2 receptor (IL-2Rα/IL-2Rβ/γc); test: cell-based or functional assay; remark: listed apart in the source

| Binder | EC50 (nM) pSTAT5, NK, human PBMCs [1] | EC50 (nM) pSTAT5, Treg, human PBMCs [1] | Fold Max signal (% pSTAT5+) Treg/NK [1] | Max signal (% pSTAT5+), NK [1] | Max signal (% pSTAT5+), Treg [1] | fold EC50 NK/Treg [1] | EC50 (nM) pSTAT5, NK, human PBMCs [2] | EC50 (nM) pSTAT5, Treg, human PBMCs [2] | Fold Max signal (% pSTAT5+) Treg/NK [2] | Max signal (% pSTAT5+), NK [2] | Max signal (% pSTAT5+), Treg [2] | fold EC50 NK/Treg [2] |
| --- | --- | --- | --- | --- | --- | --- | --- | --- | --- | --- | --- | --- |
| B1 | 0.0936 nM | 0.00189 nM | 6 fold | 14 % pSTAT5+ | 83 % pSTAT5+ | 49 fold | 0.00127 nM | 0.425 pM | 9 fold | 3.39 % pSTAT5+ | 30 % pSTAT5+ | 3 fold |
| B2 | 2.59 nM | 0.0118 nM | 5 fold | 20 % pSTAT5+ | 95 % pSTAT5+ | 220 fold | 1.14 nM | 0.00195 nM | 8 fold | 8.26 % pSTAT5+ | 64.1 % pSTAT5+ | 583 fold |
